From patent US8580267B2, “Immunocytokines for tumour therapy with chemotherapeutic agents” (Philogen S.p.A., priority 2008, dated 2013)
Numbering of substitutions follows the chain as printed.

Experiments:
[1] = test system: subcutaneous U87 glioblastoma; assay: therapy study in subcutaneous glioma mouse model; conditions: for effect on tumour growth: five administrations days 12-24, F16-IL2 20 μg i.v., temozolomide 0.525 mg i.p., temozolomide result by day 30
Experimental: Subcutaneous glioblastoma bearing mice were obtained by a s.c. flank injection of 5×10^6 U87 cells in 8-week old female BALB/c nude mice [66]. Twelve days after tumour cell implantation, when tumours had reached a size of 250-300 mm^3, mice were staged to maximize uniformity among the groups (n=5).
(§2) One group was injected i.v. (lateral tail vein) with 20 μg of F16-IL2 (corresponding to 6.6 μg of IL2) in a total volume of 100 μl PBS solution (Phosphate Buffer Saline), one was injected i.p. with 0.525 mg of temozolomide (corresponding to 75 mg/m^2) in a total volume of 150 μl saline 10% DMSO solution, a third group received both the i.v. injection of 20 μg F16-IL2 and the i.p. of 0.525 mg temozolomide, finally, the control group was injected i.p. with 150 μl of saline 10% DMSO.
(§3) A schedule of five total administrations was established: on days 12, 15, 18, 21, 24 from the tumour cell injection into mice (day 0).
(§4) Mice were monitored daily and tumours were measured with a digital caliper three times per week. Tumour volume was estimated using the formula: volume=length×width^2/2. Animals were sacrificed when tumours approached a volume of 3,000 mm^3 or when tumours turned necrotic and bleeding, according to the Swiss regulations and under a project license granted by the Veterinäramt des Kantons Zürich (198/2005).
Tumour volumes are shown as average ±SD or SE. Kaplan-Meier survival curves were performed to display therapeutic efficacy in the subcutaneous glioma model.

[2] = body weight of mice in the subcutaneous glioblastoma therapy study; type: in vivo, BALB/c nude mice
Experimental: as §2, §3, §4

subcutaneous U87 tumours = assay: quantitative biodistribution analysis in mice bearing subcutaneous U87 tumours; type: in vivo, BALB/c nude mice; conditions: radioiodinated F16-IL2 i.v., 24 h after injection
Experimental: (§1) The in vivo targeting performance of F16-IL2 was evaluated by quantitative biodistribution analysis. […] Antibody immunoreactivity after labelling was evaluated by loading a sample of radiolabelled F16-IL2 onto TNC-A1-Sepharose resin, followed by radioactive counting of the flow-through and of the eluate fractions. Immunoreactivity, defined as the ratio between the counts of the eluted protein and the sum of the counts of the eluted and flow-through fractions, was 84%. Mice were sacrificed 24 hours after injection of F16-IL2 (10 μg, 3.6 μCi per mouse). Organs were weighed and radioactivity was counted with a Packard Cobra gamma counter. Radioactivity content of representative organs was expressed as the percentage of the injected dose per gram of tissue (% ID/g).

s.c. U87 tumours = assay: immunofluorescence assessment of tumour-infiltrating cells and microvascular density in subcutaneous glioma xenografts; type: in vivo, Balb/c nude mice; conditions: anti-human IL2 staining, after three injections
Experimental: To evaluate the role of inflammatory cell responses in vivo, female Balb/c nude mice bearing s.c. U87 tumours (3 mice per group) were treated on days 12, 15 and 18 after tumour cell implantation with either saline 10% DMSO (i.p.), F16-IL2 (i.v.), temozolomide (i.p.), and F16-IL2 (i.v.) plus temozolomide (i.p.). Mice were sacrificed 24 hours after the third injection, and tumours were excised and snap-frozen in OCT. […]
Sections of 10 μm thickness were treated with ice-cold acetone, rehydrated in PBS and blocked with PBS 10% donkey serum+10% goat serum. […] Bound antibody was detected with fluorescent Alexa488- or Alexa594-coupled secondary antibodies (donkey anti-rat or goat anti-rabbit, BD Biosciences Pharmingen) and DAPI in a PBS 12% BSA solution.
In each tumour section, the staining given by the primary antibodies was quantified in three representative 10× microscopic images using the ImageJ software (http://rsb.info.nih.gov/ij/).

TNC-A1 = target: T1, TNC-A1 (Homo sapiens, UniProt P24821); assay: immunoreactivity after radiolabelling on TNC-A1-Sepharose resin; type: binding; conditions: radiolabelled F16-IL2 on TNC-A1-Sepharose resin
T1 construct: loading a sample of radiolabelled F16-IL2 onto TNC-A1-Sepharose resin
T1 sequence (P24821 1076-1165 limits assumed): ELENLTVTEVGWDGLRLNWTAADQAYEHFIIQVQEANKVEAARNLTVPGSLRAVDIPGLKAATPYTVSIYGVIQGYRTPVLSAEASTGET
Experimental: as §1

[3] = target: T2, extra-domain A1 of tenascin C (Homo sapiens, UniProt P24821); assay: real-time interaction analysis on a BIAcore 3000 instrument; type: binding; conditions: after affinity maturation
T2 construct: F16 is a human monoclonal antibody specific to the extra-domain A1 of tenascin C [25]
T2 sequence (P24821 1076-1165 limits assumed): T1 sequence (P24821 1076-1165 limits assumed)

A1 domain of tenascin-C = target: T3, A1 domain of tenascin-C (Homo sapiens, UniProt P24821); assay: immunohistochemistry on human glioblastoma specimens and U87 xenografts with F16; conditions: biotinylated SIP format, 2 μg/ml; patterns and intensities comparable to L19
T3 construct: from tissue; host or cells: human glioblastoma surgical specimens; U87 glioblastoma xenografts grown s.c. in nude mice
T3 sequence (P24821 23-2201): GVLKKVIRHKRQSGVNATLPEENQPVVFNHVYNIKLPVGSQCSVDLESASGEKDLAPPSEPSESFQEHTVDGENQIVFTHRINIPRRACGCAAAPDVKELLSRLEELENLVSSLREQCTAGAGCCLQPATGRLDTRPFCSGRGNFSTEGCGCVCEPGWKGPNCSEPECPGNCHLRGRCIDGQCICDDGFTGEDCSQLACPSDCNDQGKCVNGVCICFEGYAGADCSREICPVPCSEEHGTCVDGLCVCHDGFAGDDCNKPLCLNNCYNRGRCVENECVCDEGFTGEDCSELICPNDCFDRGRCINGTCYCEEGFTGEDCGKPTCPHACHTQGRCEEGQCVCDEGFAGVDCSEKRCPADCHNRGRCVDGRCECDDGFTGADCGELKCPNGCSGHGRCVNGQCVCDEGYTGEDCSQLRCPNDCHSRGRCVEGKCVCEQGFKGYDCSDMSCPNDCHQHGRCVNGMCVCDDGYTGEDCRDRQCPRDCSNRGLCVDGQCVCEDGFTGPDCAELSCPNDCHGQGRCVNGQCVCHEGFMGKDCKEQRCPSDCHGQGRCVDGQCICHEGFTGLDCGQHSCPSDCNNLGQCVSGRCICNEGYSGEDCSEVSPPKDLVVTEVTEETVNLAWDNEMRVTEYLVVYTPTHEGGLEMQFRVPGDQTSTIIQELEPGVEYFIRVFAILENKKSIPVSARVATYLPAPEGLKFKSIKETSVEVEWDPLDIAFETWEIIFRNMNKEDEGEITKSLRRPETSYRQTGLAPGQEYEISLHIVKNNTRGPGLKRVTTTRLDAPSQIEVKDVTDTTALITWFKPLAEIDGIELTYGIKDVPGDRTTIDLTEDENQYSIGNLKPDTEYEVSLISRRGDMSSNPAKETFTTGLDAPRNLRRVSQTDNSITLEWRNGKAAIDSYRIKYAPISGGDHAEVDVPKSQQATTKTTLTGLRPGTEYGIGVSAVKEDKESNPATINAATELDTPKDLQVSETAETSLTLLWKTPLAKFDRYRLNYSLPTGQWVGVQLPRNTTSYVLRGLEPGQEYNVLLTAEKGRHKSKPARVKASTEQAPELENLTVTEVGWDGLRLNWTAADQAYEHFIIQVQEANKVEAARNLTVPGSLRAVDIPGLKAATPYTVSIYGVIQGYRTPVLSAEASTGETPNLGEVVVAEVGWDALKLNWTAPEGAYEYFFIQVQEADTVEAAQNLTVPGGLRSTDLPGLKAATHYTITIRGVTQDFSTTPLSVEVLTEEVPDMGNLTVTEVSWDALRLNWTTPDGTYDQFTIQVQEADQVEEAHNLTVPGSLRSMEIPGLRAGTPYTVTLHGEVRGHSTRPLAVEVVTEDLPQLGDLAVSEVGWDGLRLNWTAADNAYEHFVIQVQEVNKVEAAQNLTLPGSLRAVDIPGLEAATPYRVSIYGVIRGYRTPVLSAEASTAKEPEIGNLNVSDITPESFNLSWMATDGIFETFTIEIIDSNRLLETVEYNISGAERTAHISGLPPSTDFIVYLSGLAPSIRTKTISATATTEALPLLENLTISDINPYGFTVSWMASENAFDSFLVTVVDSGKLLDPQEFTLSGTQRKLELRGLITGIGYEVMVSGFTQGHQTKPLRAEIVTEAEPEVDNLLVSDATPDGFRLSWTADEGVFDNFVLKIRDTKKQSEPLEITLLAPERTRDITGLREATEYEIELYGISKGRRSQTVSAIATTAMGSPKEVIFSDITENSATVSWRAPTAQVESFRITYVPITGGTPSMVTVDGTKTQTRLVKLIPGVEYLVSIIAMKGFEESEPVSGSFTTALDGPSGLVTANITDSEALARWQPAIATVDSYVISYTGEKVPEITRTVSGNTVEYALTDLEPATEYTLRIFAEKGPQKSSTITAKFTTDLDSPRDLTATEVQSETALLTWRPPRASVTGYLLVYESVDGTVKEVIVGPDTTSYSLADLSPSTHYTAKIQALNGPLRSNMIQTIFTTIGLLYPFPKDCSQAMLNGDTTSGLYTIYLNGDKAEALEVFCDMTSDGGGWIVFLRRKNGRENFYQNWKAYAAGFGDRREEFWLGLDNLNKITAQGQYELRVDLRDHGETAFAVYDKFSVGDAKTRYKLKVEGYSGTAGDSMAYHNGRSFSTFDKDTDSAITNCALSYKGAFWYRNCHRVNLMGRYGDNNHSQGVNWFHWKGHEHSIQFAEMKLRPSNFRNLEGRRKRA
Experimental: Freshly frozen human glioblastoma tissues were received from the Neurosurgery department of Basel University Hospital, Basel, Switzerland, and were stored at −80° C.
For immunohistochemical procedures, the F16 antibody was used in biotinylated small immunoprotein (SIP) format. F16 is a human monoclonal antibody specific to the extra-domain A1 of tenascin C [25]. […] The SIP antibody format consists of a covalent homodimer in which each monomeric unit comprises a scFv fused to a human CH4 domain of the secretory isoform S2 of human IgE (as exemplified for antibody L19 in ref. [65]). This domain promotes the formation of homodimers that are further stabilized by disulfide bonds between the C-terminal cysteine residues, resulting in a 75 kDa homobivalent miniantibody. This SIP antibody was further biotinylated in order to avoid background staining given by the human endogenous IgE.
Sections of 10 μm thickness were treated with ice-cold acetone, rehydrated in TBS (50 mM Tris, 100 mM NaCl, 0.001% Aprotinin, pH 7.4) and blocked with TBS 20% fetal calf serum. Biot-(SIP) F16 antibody was added onto the sections in a final concentration of 2 μg/ml. Bound antibody was detected with streptavidin-alkaline phosphatase complex (Biospa). Fast Red (Tablets Set, Sigma) was used as phosphatase substrate and sections were counterstained with Gill's hematoxylin no. 2 (Sigma). […]

tenascin-C = tenascin-C (Homo sapiens, UniProt P24821); assay: binding of F16 with Ala to Met mutation in VH CDR1; conditions: Ala to Met in position 4 of VH CDR1
tenascin-C, sequence (P24821 23-2201): as above

Cn1nnc2c(C(N)=O)ncn2c1=O [temozolomide, 8-carbamoyl-3-methylimidazo[5,1-d]-1,2,3,5-tetrazin-4(3H)-one]
mice in which tumours started growing again ([1]; by day 45): 3/5 | effect on tumour growth [1]: virtually complete tumour regression | mice surviving over 3 months from the tumour cell injection ([1]; n=5 per group, combination group alive and tumour-free): two mice | day before which the other animals were sacrificed ([1]; tumour had reached the cut-off size): < 106 days | transient weight loss, nadir ([2]; after the fifth injection): 10%

F16-IL2: clinical-stage immunocytokine consisting of human IL-2 fused to the human antibody F16, specific to the A1 domain of tenascin-C
accumulation in the tumour (subcutaneous U87 tumours): 2.3 % ID/g | tumour-to-blood ratio (subcutaneous U87 tumours): 11.5 | localization of the immunocytokine within the tumour (s.c. U87 tumours): perivascular region and in the tumour extracellular matrix | sacrifice of the last mouse, day from tumour cell inoculation ([1]; Kaplan-Meier survival, cut-off tumour size 3,000 mm^3): 47 days | effect on tumour growth [1]: minor tumour growth retardation | immunoreactivity (eluted counts / eluted + flow-through counts) (TNC-A1): 84% | weight loss ([2]; F16-IL2 20 μg i.v., five administrations): no weight loss

B1: F16: human monoclonal antibody specific to the extra-domain A1 of tenascin C; used in biotinylated SIP format for immunohistochemistry (antibody, V domains shown)
VH: EVQLLESGGGLVQPGGSLRLSCAASGFTFSRYGASWVRQAPGKGLEWVSAISGSGGSTYYADSVKGRFTISRDNSKNTLYLQMNSLRAEDTAVYYCAKAHNAFDYWGQGTLVTVSR
VL: SSELTQDPAVSVALGQTVRITCQGDSLRSYYASWYQQKPGQAPVLVIYGKNNRPSGIPDRFSGSSSGNTASLTITGAQAEDEADYYCNSSVYTMPPVVFGGGTKLTVL
dissociation constant [3]: low nanomolar range | staining of tumour sections (A1 domain of tenascin-C): strongly stain both experimental U87 tumours and glioblastomas from patients

B2: improved variant of F16: 4A1-F16 having the Ala to Met mutation in VH CDR1, giving VH CDR1 SEQ ID NO: 18 (antibody, V domains shown)
VH: B1 VH with A34M
VL: B1 VL
binding affinity to tenascin-C (tenascin-C): retaining high affinity binding to tenascin-C
